{
  "source": "paper PMC10748205",
  "binders": {"B1": {"name": "SHANK-Associated RH Domain Interactor (natural protein)", "chain": "MAPPAGGAAAAASDLGSAAVLLAVHAAVRPLGAGPDAEAQLRRLQLSADPERPGRFRLELLGAGPGAVNLEWPLESVSYTIRGPTQHELQPPPGGPGTLSLHFLNPQEAQRWAVLVRGATVEGQNGSKSNSPPALGPEACPVSLPSPPEASTLKGPPPEADLPRSPGNLTEREELAGSLARAIAGGDEKGAAQVAAVLAQHRVALSVQLQEACFPPGPIRLQVTLEDAASAASAASSAHVALQVHPHCTVAALQEQVFSELGFPPAVQRWVIGRCLCVPERSLASYGVRQDGDPAFLYLLSAPREAPATGPSPQHPQKMDGELGRLFPPSLGLPPGPQPAASSLPSPLQPSWSCPSCTFINAPDRPGCEMCSTQRPCTWDPLAAAST"}},
  "assay_in_all_cases": "two-hybrid",
  "key": {"[1]": {"molecular_target": "Gt-1 ORF3 KISS (hepatitis E virus genotype 1 (Sar-55))"}, "[2]": {"molecular_target": "Gt-3 ORF3 KISS (hepatitis E virus genotype 3 (Kernow-C1 p6))"}, "[3]": {"molecular_target": "Gt-1 ORF3 MAPPIT (hepatitis E virus genotype 1 (Sar-55))"}},
  "data": [
    {"binder": "B1", "values": [
      {"measurement": "BP/BIP", "setting": "[1]", "result": 42.2},
      {"measurement": "BP/PIB", "setting": "[1]", "result": 429},
      {"measurement": "Value BP (bait-prey luciferase value)", "setting": "[1]", "result": 796000},
      {"measurement": "BP/BIP", "setting": "[2]", "result": 25.4},
      {"measurement": "BP/PIB", "setting": "[2]", "result": 101},
      {"measurement": "Value BP (bait-prey luciferase value)", "setting": "[2]", "result": 188000},
      {"measurement": "BP/BIP", "setting": "[3]", "result": 61.2},
      {"measurement": "BP/PIB", "setting": "[3]", "result": 69.9},
      {"measurement": "Value BP (bait-prey fold induction)", "setting": "[3]", "result": 82.1}
    ]}
  ]
}
